Source: US20250326816A1 (KOREA UNIVERSITY RESEARCH AND BUSINESS FOUNDATION, published 2025)
Positions count from the first letter of the chain named. Names may count otherwise.

T1: ICOS-L variant Y8 fused to antibody Fc domain (LALAPG) (human, UniProt O75144 19-256)
T1 construct: also called Y8-Fc; not shown: human IgG1 Fc with L234A/L235A/P329G C-terminal to ICOS-L
T1 chain: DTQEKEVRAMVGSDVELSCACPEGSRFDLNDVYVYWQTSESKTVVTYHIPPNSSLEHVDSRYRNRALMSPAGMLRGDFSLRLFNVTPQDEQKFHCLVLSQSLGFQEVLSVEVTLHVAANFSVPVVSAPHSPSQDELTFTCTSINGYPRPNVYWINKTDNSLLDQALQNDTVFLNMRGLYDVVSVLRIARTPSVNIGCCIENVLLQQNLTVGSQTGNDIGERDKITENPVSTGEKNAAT

T2: ATZ (H)-A184: ICOS-L A184 variant fused to the heavy chain of Atezolizumab with LALAPG mutation in the Fc … (Homo sapiens (Human), UniProt O75144 19-256)
T2 construct: Antibody-ligand fusion; ICOS-L at the C-terminal of the heavy chain; not shown: Atezolizumab heavy chain (VH plus IgG1 constant region with LALAPG), atezolizumab light chain, and any linker
T2 chain: T1 chain with P51Q, N52H, H57Y, Q100P

T3: ATZ (L)-Y8_H57N: ICOS-L Y8_H57N variant fused to the light chain of Atezolizumab with LALAPG mutation in the … (Homo sapiens (Human), UniProt O75144 19-256)
T3 construct: Antibody-ligand fusion; ICOS-L at the C-terminal of the light chain; not shown: Atezolizumab light chain (VL plus constant region), atezolizumab heavy chain with LALAPG, and any linker
T3 sequence: T1 chain with H57N

T4: wild-type ICOS-L (Homo sapiens (Human), UniProt O75144 19-256)
T4 construct: also called wild-type Inducible Co-Stimulator-ligand
T4 sequence: T1 chain with P51Q, H57N

B1: ICOS monomer protein (ICOS E21-H129) (receptor, human, UniProt Q9Y6W8 21-129, looked up)
chain: EINGSANYEMFIFHNGGVQILCKYPDIVQQFKMQLLKGGQILCDLTKTKGSGNTVSIKSLKFCHSQLSNNSVSFFLYNLDHSHANYYFCNLSIFDPPPFKVTLTGGYLH
notes: range 21-129; also called wild-type ICOS
B2: A184 (ligand)
single chain: T1 chain with P51Q, N52H, H57Y, Q100P
notes: Soluble form without Fc; the Fc and atezolizumab fusions are m12, m15 and m18; also called control A184
B3: ICOS-L variant Y8 (ligand)
chain: T1 chain
B4: ICOS-L variant Y8_P51Q (ligand)
chain: T1 chain with P51Q
notes: P51 of Y8 put back to Q; keeps N57H only
B5: Dimeric human ICOS (ICOS-Fc) (Fc fusion, UniProt Q9Y6W8 21-140, looked up)
chain: EINGSANYEMFIFHNGGVQILCKYPDIVQQFKMQLLKGGQILCDLTKTKGSGNTVSIKSLKFCHSQLSNNSVSFFLYNLDHSHANYYFCNLSIFDPPPFKVTLTGGYLHIYESQLCCQLK
notes: range 21-140; Fc at the C-terminus of ICOS to induce dimerization; Labeled with Alexa488 when used as probe in the flow cytometry on yeast; also called ICOS-Fc dimer protein; ICOS dimer protein; not shown: GS linker of glycine and serine; Fc region (domain) of human IgG antibody
B6: ICOS-L variant Y8_H57N (ligand)
chain: T1 chain with H57N
notes: H57 of Y8 put back to N

What was measured:
[1] = biological target: T1, ICOS-L variant Y8 fused to antibody Fc …; assay: ELISA, ICOS-L-Fc coated at 4 ug/ml, His-tagged ICOS monomer titrated, anti-His-HRP
Procedure: (§1) After washing four times, 50 μl of an anti-His-HRP conjugate was added and reacted at room temperature for 1 hour, and then washed four times. Thereafter, 50 μl of a 1-Step Ultra TMB-ELISA substrate solution (Thermo Fisher Scientific, 34028) was added to develop color, and then added with 50 μl each of 2 M H₂SO₄ to terminate the reaction, and then analyzed using an Epoch microplate spectrophotometer (BioTek).

[2] = biological target: T2, ATZ (H)-A184: ICOS-L A184 variant fused …; assay: sandwich ELISA, PD-L1-Fc coated at 40 nM, atezolizumab fusion captured at 200 nM, His-tagged ICOS monomer titrated, anti-His-HRP
Procedure: (§2) Specifically, 50 μl of 40 nM PD-L1-Fc in 0.05 M Na₂CO₃ (pH 9.6) was dispensed into a Flat Bottom Polystyrene High Bind 96-well microplate (Costar), immobilized at 4° C. for 16 hours, and then blocked with 100 μl of PBS (pH 7.4) containing 0.5% bovine serum albumin (BSA) (Gibco) for 2 hours at room temperature. […] After washing four times, 50 μl of an anti-His-HRP conjugate was added and reacted at room temperature for 1 hour, and then washed four times. Thereafter, 50 μl of a 1-Step Ultra TMB-ELISA substrate solution (Thermo Fisher Scientific, 34028) was added to develop color, and then added with 50 μl each of 2 M H₂SO₄ to terminate the reaction, and then analyzed using an Epoch microplate spectrophotometer (BioTek).

[3] = biological target: T3, ATZ (L)-Y8_H57N: ICOS-L Y8_H57N variant …; assay: as above
Procedure: as §2

[4] = biological target: B5; assay: bio-layer interferometry (Octet R8); fold gain of KD over wild-type ICOS-L as printed in the table
[5] = biological target: B5; assay: ELISA, ICOS-Fc coated at 4 ug/ml, ICOS-L variant titrated, anti-His-HRP (x axis printed as PD-L1 CO…ON (nM))
Procedure: as §1

[6] = biological target: B5; assay: bio-layer interferometry (Octet R8), ICOS-Fc captured on Protein A biosensor, ICOS-L variant in solution; the table prints no units
[7] = biological target: B5; assay: ELISA, ICOS-Fc coated at 4 ug/ml, ICOS-L variant titrated, anti-His-HRP
Procedure: as §1

wild-type ICOS-L = biological target: T4, wild-type ICOS-L; assay: bio-layer interferometry (Octet R8), ICOS-Fc captured on Protein A biosensor, ICOS-L variant in solution; the table prints no units
ICOS-L variant Y8_P51Q = biological target: B4; assay: as above
ICOS-L variant Y8_H57N = biological target: B6; assay: as above

INCREASED MULTIPLE [4] | EC50 (read off the curve) [5] [nM] | Kd [6] [nM] | EC50 (read off the curve) [7] [nM] | Binder | further results
 |  |  |  | B1 | EC50 (read off the curve) [1]: ~4 nM; EC50 (read off the curve) [2]: ~5 nM; EC50 (read off the curve) [3]: ~9 nM
4.89 | ~20 | 23.1 |  | B2 | 
95 | ~6 | 1.19 | ~4 | B3 | 
4.85 |  |  |  | B4 | 
 |  |  |  | B5 | Kd (wild-type ICOS-L): 113 nM; Kd (ICOS-L variant Y8_P51Q): 23.3 nM; Kd (ICOS-L variant Y8_H57N): 4.75 nM
23.8 |  |  | ~10 | B6 | 
